B1: CLCN6 (parent)
chain: MAGCRGSLCCCCRWCCCCGERETR

Variants of: B1
Test: protein stability index of a GFP-peptide fusion (GPS, HEK-293T) (PSI 1-6); higher = more stable
Details: c terminus: a fixed tail appended
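Further: lentivirally expressed fusions sorted by FACS into six bins by GFP to DsRed ratio, PSI derived from sequencing read proportions per bin multiplied by bin number.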

Going from MAGCRGSLCCCCRWCPCCGERETR to MAGCRGSLCCCCRWCDCCGERETR, the protein stability index rises from 1.33 to 2.66.

Compared with MAGCRGSLCCCCRWCTCCGERETR, MAGCRGSLCCCCRWCHCCGERETR is lower in protein stability index: 1.86 for the first, 1.47 for the second.

Compared with MAGCRGSLCCCCRWCLCCGERETR, MAGCRGSLCCCCRWCICCGERETR is higher in protein stability index: 1.55 for the first, 2.23 for the second.

Going from MAGCRGSLCCCCRWCKCCGERETR to MAGCRGSLCCCCRWCACCGERETR, the protein stability index rises from 1.65 to 2.12.

Compared with MAGCRGSLCCCCRWCSCCGERETR, MAGCRGSLCCCCRWCRCCGERETR is higher in protein stability index: 1 for the first, 1.28 for the second.

Compared with MAGCRGSLCCCCRWCECCGERETR, MAGCRGSLCCCCRWYCCCGERETR is lower in protein stability index: 2.22 for the first, 1.36 for the second.

First: MAGCRGSLCCCCRWDCCCGERETR
Second: MAGCRGSLCCCCRWSCCCGERETR
The protein stability index of the first is lower: 1.71 for the first, 2 for the second.

Compared with MAGCRGSLCCCCRWGCCCGERETR, MAGCRGSLCCCCRWFCCCGERETR is higher in protein stability index: 2.04 for the first, 2.99 for the second.

Going from MAGCRGSLCCCCRWVCCCGERETR to MAGCRGSLCCCCRWHCCCGERETR, the protein stability index rises from 2.08 to 2.6.

Going from MAGCRGSLCCCCRWACCCGERETR to MAGCRGSLCCCCRWQCCCGERETR, the protein stability index rises from 1.97 to 2.39.

Going from MAGCRGSLCCCCRWKCCCGERETR to MAGCRGSLCCCCRWPCCCGERETR, the protein stability index falls from 1.82 to 1.5.

Compared with MAGCRGSLCCCCRWMCCCGERETR, MAGCRGSLCCCCRWLCCCGERETR is higher in protein stability index: 1.65 for the first, 2.74 for the second.

Compared with MAGCRGSLCCCCRWNCCCGERETR, MAGCRGSLCCCCRWICCCGERETR is higher in protein stability index: 1.76 for the first, 1.87 for the second.

Going from MAGCRGSLCCCCRLCCCCGERETR to MAGCRGSLCCCCRGCCCCGERETR, the protein stability index falls from 3.15 to 2.23.

Compared with MAGCRGSLCCCCRYCCCCGERETR, MAGCRGSLCCCCRNCCCCGERETR is higher in protein stability index: 1.55 for the first, 2.06 for the second.

Compared with MAGCRGSLCCCCRCCCCCGERETR, MAGCRGSLCCCCRECCCCGERETR is higher in protein stability index: 1.53 for the first, 2.08 for the second.

Going from MAGCRGSLCCCCRQCCCCGERETR to MAGCRGSLCCCCRPCCCCGERETR, the protein stability index falls from 2.47 to 2.33.

First: MAGCRGSLCCCCRKCCCCGERETR
Second: MAGCRGSLCCCCRACCCCGERETR
The protein stability index of the first is higher: 2.32 for the first, 1.89 for the second.

Going from MAGCRGSLCCCCRFCCCCGERETR to MAGCRGSLCCCCRRCCCCGERETR, the protein stability index rises from 1.95 to 2.22.

Compared with MAGCRGSLCCCCRHCCCCGERETR, MAGCRGSLCCCCRTCCCCGERETR is higher in protein stability index: 2.06 for the first, 3.2 for the second.

First: MAGCRGSLCCCCRMCCCCGERETR
Second: MAGCRGSLCCYCRWCCCCGERETR
The protein stability index of the first is lower: 1.14 for the first, 2 for the second.

First: MAGCRGSLCCGCRWCCCCGERETR
Second: MAGCRGSLCCQCRWCCCCGERETR
The protein stability index of the first is higher: 3.4 for the first, 1.9 for the second.

Compared with MAGCRGSLCCFCRWCCCCGERETR, MAGCRGSLCCNCRWCCCCGERETR is lower in protein stability index: 2.72 for the first, 2.15 for the second.

Compared with MAGCRGSLCCICRWCCCCGERETR, MAGCRGSLCCDCRWCCCCGERETR is higher in protein stability index: 1.68 for the first, 2.23 for the second.

Compared with MAGCRGSLCCKCRWCCCCGERETR, MAGCRGSLCCVCRWCCCCGERETR is higher in protein stability index: 1.17 for the first, 1.41 for the second.

Going from MAGCRGSLCCWCRWCCCCGERETR to MAGCRGSLCCACRWCCCCGERETR, the protein stability index rises from 2.26 to 2.42.

Compared with MAGCRGSLCCSCRWCCCCGERETR, MAGCRGSLCCHCRWCCCCGERETR is lower in protein stability index: 1.77 for the first, 1.3 for the second.

Going from MAGCRGSLCCTCRWCCCCGERETR to MAGCRGSLCCECRWCCCCGERETR, the protein stability index rises from 2.24 to 2.27.

First: MAGCRGSLCCRCRWCCCCGERETR
Second: MAGCRGSLCCLCRWCCCCGERETR
The protein stability index of the first is lower: 1.97 for the first, 3.23 for the second.

First: MAGCRGSLCCMCRWCCCCGERETR
Second: MAGCRGSLCWCCRWCCCCGERETR
The protein stability index of the first is higher: 1.84 for the first, 1.69 for the second.

Compared with MAGCRGSLCYCCRWCCCCGERETR, MAGCRGSLCCCGRWCCCCGERETR is higher in protein stability index: 1.88 for the first, 3.2 for the second.

Compared with MAGCRGSLCCCHRWCCCCGERETR, MAGCRGSLCCCDRWCCCCGERETR is higher in protein stability index: 1.52 for the first, 2.35 for the second.

Compared with MAGCRGSLCCCLRWCCCCGERETR, MAGCRGSLCCCFRWCCCCGERETR is higher in protein stability index: 2.86 for the first, 3.72 for the second.

Compared with MAGCRGSLCCCYRWCCCCGERETR, MAGCRGSLCCCKRWCCCCGERETR is lower in protein stability index: 2.23 for the first, 1.89 for the second.

Compared with MAGCRGSLCCCNRWCCCCGERETR, MAGCRGSLCCCMRWCCCCGERETR is lower in protein stability index: 2.9 for the first, 2.19 for the second.

First: MAGCRGSLCCCPRWCCCCGERETR
Second: MAGCRGSLCCCIRWCCCCGERETR
The protein stability index of the first is lower: 1.66 for the first, 2.88 for the second.

First: MAGCRGSLCCCRRWCCCCGERETR
Second: MAGCRGSLCCCVRWCCCCGERETR
The protein stability index of the first is higher: 1.95 for the first, 1.94 for the second.

Compared with MAGCRGSLCCCTRWCCCCGERETR, MAGCRGSLCCCSRWCCCCGERETR is lower in protein stability index: 2.59 for the first, 1.96 for the second.

First: MAGCRGSLCCCCGWCCCCGERETR
Second: MAGCRGSLCCCCYWCCCCGERETR
The protein stability index of the first is lower: 2.27 for the first, 2.57 for the second.

Compared with MAGCRGSLCCCCMWCCCCGERETR, MAGCRGSLCCCCQWCCCCGERETR is lower in protein stability index: 2.13 for the first, 1.79 for the second.

Compared with MAGCRGSLCCCCSWCCCCGERETR, MAGCRGSLCCCCHWCCCCGERETR is higher in protein stability index: 1.94 for the first, 2.06 for the second.

Going from MAGCRGSLCCCCIWCCCCGERETR to MAGCRGSLCCCCAWCCCCGERETR, the protein stability index rises from 1.3 to 2.01.

Compared with MAGCRGSLCCCCKWCCCCGERETR, MAGCRGSLCCCCPWCCCCGERETR is higher in protein stability index: 1.1 for the first, 1.76 for the second.

Going from MAGCRGSLCCCCFWCCCCGERETR to MAGCRGSLCCCCNWCCCCGERETR, the protein stability index falls from 2.78 to 2.4.

Compared with MAGCRGSLCCCCWWCCCCGERETR, MAGCRGSLCCCCTWCCCCGERETR is lower in protein stability index: 3.64 for the first, 1.95 for the second.

Compared with MAGCRGSLCCCCEWCCCCGERETR, MAGCRGSLCCCCCWCCCCGERETR is lower in protein stability index: 2.4 for the first, 2.02 for the second.

Compared with MAGCRGSLCCCCLWCCCCGERETR, MAGCRGSLCCCCVWCCCCGERETR is lower in protein stability index: 2.4 for the first, 1.78 for the second.

From the supplement of paper PMC10567573
